The results in this text go back to US20240000960A1 (CLEVELAND CLINIC FOUNDATION, published 2024).

The target in the assay is T1, CD6 (as used in surface plasmon resonance) (human, UniProt P30203 18-402, limits assumed).
T1 construct: also called human CD6
T1 sequence (looked up): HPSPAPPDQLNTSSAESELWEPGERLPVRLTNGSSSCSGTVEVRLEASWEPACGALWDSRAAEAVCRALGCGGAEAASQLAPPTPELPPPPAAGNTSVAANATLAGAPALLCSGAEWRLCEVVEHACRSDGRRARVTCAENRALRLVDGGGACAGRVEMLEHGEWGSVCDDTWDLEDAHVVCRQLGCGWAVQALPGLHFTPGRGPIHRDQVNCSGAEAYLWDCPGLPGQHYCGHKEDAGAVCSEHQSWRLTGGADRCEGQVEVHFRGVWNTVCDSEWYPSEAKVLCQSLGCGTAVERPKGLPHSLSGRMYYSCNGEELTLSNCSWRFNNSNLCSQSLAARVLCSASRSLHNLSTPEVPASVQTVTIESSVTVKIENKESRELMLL
The assay can be described thus: surface plasmon resonance.

In general, Kd refers to the equilibrium constant for the complex coming apart. Read a high Kd as lower affinity.

B1: mouse anti-human CD6 IgG (UMCD6) (antibody, V domains shown)
VH: QVQLKESGPGLVAPSQSLSITCTVSGFSLSRYSVHWVRQPPGKGLEWLGLIWGGGFTDYNSALKSRLSITKDNSKSQVFLKMNSLQTDDTAMYYCAREGVAYWGQGTLVSVSA
VL: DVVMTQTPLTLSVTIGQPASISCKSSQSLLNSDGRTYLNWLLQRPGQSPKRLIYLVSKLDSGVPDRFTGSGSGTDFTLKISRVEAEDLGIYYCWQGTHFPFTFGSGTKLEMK
notes: Mouse IgG; also called parent anti-CD6 mAb; parental mouse anti-CD6 IgG
B1 yielded a Kd of 0.01 nM.
